Laboratory results published in article PMC9620234, “Design, Synthesis, and Biochemical and Biological Evaluation of Novel 7-Deazapurine Cyclic Dinucleotide Analogues as STING Receptor Agonists” (Journal of Medicinal Chemistry, 2022).

Molecular target: the molecule itself
Test: crystal structure; wt hSTING (140-379) co-crystallised with CDN 5f, 5k, 5l or 5m; sitting drop vapor diffusion, 18 °C; chains A/B with one ligand molecule

B1: human wild-type STING truncated to residues 140–379 (domain or fragment, UniProt Q86WV6 140-379, looked up)
chain: APAEISAVCEKGNFNVAHGLAWSYYIGYLRLILPELQARIRTYNQHYNNLLRGAVSQRLYILLPLDCGVPDNLSMADPNIRFLDKLPQQTGDHAGIKDRVYSNSIYELLENGQRAGTCVLEYATPLQTLFAMSQYSQAGFSREDRLEQAKLFCRTLEDILADAPESQNNCRLIAYQEPADDSSFSLSQEVLRHLRQEEKEEVTVGSLKTSAVPSTSTMSQEPELLISGMEKPLPLRTDFS
notes: stimulator of interferon genes (STING), human, wild-type allele, UniProt Q86WV6, residues 140-379; Each crystal also holds one cyclic dinucleotide ligand (5f, 5k, 5l or 5m) in the site between the two chains; also called wt hSTING; stimulator of interferon genes; source: E. coli BL21 (DE3), purified (Ni-NTA, Ulp1 protease digestion, SEC, HiTrap Capto S)
- binding result: binds
